Tests used:
Type in all cases: biochemical
[1] = Kinetic parameters towards α-D-GlcpNAc-OAll acceptor; conditions: 250 mM for both sucrose and α-D-GlcpNAc-OAll
Protocol: Enzyme assays were carried out in a total volume of 2 mL containing pure enzyme (0.037 mg, 0.076 mg and 0.046 mg when using A289P-F290C, A289P-F2901 and A289P-F290L, respectively).
The kcat/Km (α-D-GlcpNAc-OAll) value was calculated from the initial rate of formation of desired disaccharide (α-D-Glcp-(1→4)-α-D-GlcpNAc-OAll), corresponding to the initial rate of α-D-GlcpNAc-OAll consumed. As saturation was not achieved with the mutants, efficiency was calculated by linear regression analysis of the velocity versus substrate concentration plot.

[2] = Enzymatic glucosylation of D-GlcpNAc derivatives: α-D-GlcpNAc-OMe; conditions: sucrose:acceptor 1:1 (146 mM); estimated according to peak areas
Protocol: (§1) The mutant F290K and the ASNPwt were tested on other D-GlcNAc derivatives (α-D-GlcpNAc-OMe, β-D-GlcpNAc-OMe, β-D-GlcpNAc-Oallyl and D-GlcNHTCA) used as potential acceptors. The enzymatic reaction was carried out using sucrose as donor and D-GlcNAc derivative as acceptor in a 1:1 ratio (146 mM)
(§2) Efficiency of the glucosylation reaction was evaluated by HPLC analysis of the acceptor reaction product synthesized a Biorad HPLC Carbohydrate Analysis column (HPX-87K column (300×7.8 mm))
(§3) Percentages of glucosylation rates were estimated according to peak areas as no reference was available.

[3] = Glucosylation of α-D-GlcpNAc-OAll by purified F290D, F290K and ASNPwt (146 mM sucrose + 146 mM acceptor)
Protocol: All assays were performed at 30° C. in 50 mM Tris buffer, pH=7.0. For the acceptor reactions, F290D, F290K and ASNPwt (1G5A) were tested on α-D-GlcpNAc-OAll.
Comparison of products synthesized by wild-type and AS variants. Reactions were performed in the presence of 146 mM sucrose alone or supplemented with 146 mM acceptor. The purified wild-type or mutated GST/AS were employed at 0.5 U/mL. The reactions were stopped by heating at 95° C. for 5 min. The final mixture was centrifuged at 18 000 g for 10 min, filtered on 0.22 μm membrane and analyzed by HPLC, as previously described.
Soluble and insoluble oligosaccharides produced during the reaction were identified by HPAEC using a Dionex Carbo-Pack PA100 column at 30° C. Before analysis, the insoluble fraction was solubilized in KOH at a final total sugar concentration of 10 g/kg. Mobile phase (150 mM NaOH) was set at 1 mL/min flow rate with a sodium acetate gradient (going from 6 to 500 mM within 120 min). Detection was performed using a Dionex ED40 module with a gold working electrode and an Ag/AgCl pH reference. Note that α-D-GlcpNAc-OAll (acceptor) and its derivatives are not oxidable products and thus are not detectable by HPAEC. Sucrose, glucose, fructose, α-D-GlcpNAc-OAll (acceptor) and its derivatives (glucosylation products) were quantified by HPLC, as previously described

[4] = HPLC screening of the single-mutant amylosucrase library for glucosylation of D-GlcpNAc; conditions: acceptor D-GlcpNAc
Protocol: The protocol was established to enable the rapid identification of clones for which D-GlcpNAc glucosylation was improved. To obtain higher amounts of enzymes and facilitate detection of glucosylated compounds upon HPLC screening, mutants were produced in 96-DeepWell Format plates. Storage microplates containing monomutants were thawed and replicated to inoculate a starter culture in 96-well microplates containing, in each well, 150 μL LB medium supplemented with ampicillin (100 μg/mL). After growth for 24 h at 30° C. under agitation (200 rpm), plates were duplicated into 96-Deep Well plates containing, in each well, 1.1 mL LB medium supplemented with ampicillin (100 μg/mL) and IPTG (1 mM) to induce GST-AS expression. Cultures were then grown for 24 h at 30° C. under agitation (200 rpm). Plates were centrifuged (20 min, 3000 g, 4° C.) and the supernatant was removed. The cell pellet was resuspended in 200 μL of lysozyme (0.5 mg/mL), followed by freezing at −80° C. for 8 to 12 h. After thawing at room temperature, 100 μL of sucrose and 100 μL of acceptor (each at a final concentration of 73 mM) were added to each well. Enzymatic reaction was incubated at 30° C. during 24 h under agitation. The DeepWell plates were then centrifuged (20 min, 3000 g, 4° C.) and 300 μL of the supernatant was transferred to a filter micro-plate (PVDF 0.2 μm) to be clarified. […]
Efficiency of the glucosylation reaction was evaluated by HPLC analysis of the acceptor reaction product synthesized when using D-GlcpNAc as acceptor using a Dionex P 680 series pump, a Shodex RI 101 series refractometer, a Dionex UVD 340 UV/Vis detector and an autosampler HTC PAL. […]
For each of the 7 selected positions, 19 single mutants were generated (corresponding to each possible amino acid change). […] Both sucrose consumption and disaccharide formation were determined in order to calculate the glucosylation rate defined as the molar ratio of monoglucosylated acceptor versus/sucrose consumed.

[5] = Enzymatic glucosylation of D-GlcpNAc derivatives: β-D-GlcpNAc-OMe; conditions: sucrose:acceptor 1:1 (146 mM); estimated according to peak areas
Protocol: as §1, §2, §3

[6] = purified enzyme, Sucrose=Acceptor=146 mM, compared with ASNPwt

B1: F290K: single mutant F290K of N. polysaccharea amylosucrase 1G5A (protein)
chain: SPNSQYLKTRILDIYTPEQRAGIEKSEDWRQFSRRMDTHFPKLMNELDSVYGNNEALLPMLEMLLAQAWQSYSQRNSSLKDIDIARENNPDWILSNKQVGGVCYVDLFAGDLKGLKDKIPYFQELGLTYLHLMPLFKCPEGKSDGGYAVSSYRDVNPALGTIGDLREVIAALHEAGISAVVDFIFNHTSNEHEWAQRCAAGDPLFDNFYYIFPDRRMPDQYDRTLREIFPDQHPGGFSQLEDGRWVWTTFNSFQWDLNYSNPWVFRAMAGEMLFLANLGVDILRMDAVAKIWKQMGTSCENLPQAHALIRAFNAVMRIAAPAVFFKSEAIVHPDQVVQYIGQDECQIGYNPLQMALLWNTLATREVNLLHQALTYRHNLPEHTAWVNYVRSHDDIGWTFADEDAAYLGISGYDHRQFLNRFFVNRFDGSFARGVPFQYNPSTGDCRVSGTAAALVGLAQDDPHAVDRIKLLYSIALSTGGLPLIYLGDEVGTLNDDDWSQDSNKSDDSRWAHRPRYNEALYAQRNDPSTAAGQIYQDLRHMIAVRQSNPRFDGGRLVTFNTNNKHIIGYIRNNALLAFGNFSEYPQTVTAHTLQAMPFKAHDLIGGKTVSLNQDLTLQPYQVMWLEIA
V250mM (initial rate of acceptor consumption) [1]: 6690 µmol/min/g | glucosylation of acceptor α-D-GlcpNAc-OMe [2]: > 95% | maltooligosaccharide formation on addition of acceptor ([3]; 146 mM sucrose supplemented with 146 mM α-D-GlcpNAc-OAll, t=24 h): totally suppressed | times more efficient for α-D-GlcpNAc-OAll glucosylation [3, 6]: 10 times | times more efficient to form α-D-Glcp-(1→4)-D-GlcpNAc-OAll [3, 6]: 20 times | increase of glucosylation rate compared to the wild type [4]: 45 fold | glucosylation of acceptor β-D-GlcpNAc-OMe [5]: 65-70%
